Legend:
[1] = target: T1, AFP158/HLA-A*02:01 complex (human); assay: SPR, scFv captured, pMHC in flow;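 note: complex injected at several concentrations over crude scFv, association then running-buffer dissociation, KD estimated from kinetic on- and off-rate constants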
T1 construct: flowed over the chip in SPR; also called AFP158 pro
Experimental: (§1) The experiment was carried out as follows. The crude scFv protein were captured onto the sensorchip. Different concentrations (320, 160, 40 nM) of AFP158/HLA-A*02:01 complex flowed over the sensorchip surface, and were allowed to bind the antibody fragment for 100 s followed by injection of the running buffer to allow dissociation of the complex. On-rate (kd) and off-rate (kd) were calculated based on association and dissociation curve, and were used to estimate the equilibrium dissociation constant (KD).

[2] = target: T1, AFP158/HLA-A*02:01 complex; assay: SPR, KD ratio to AS170036 VL1VH1;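 note: crude scFv captured on a sensor chip, peptide–HLA complex passed over at several concentrations, association then buffer dissociation, KD derived from on- and off-rates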
Experimental: as §1

Row | Binder | Kd [1] [nM] | Affinity increase [2] [fold]
1 | HG108A (scFv, AS170036 VL1VH1 scFv mutein; also called AS170036 VL1VH1-VHG108A) scFv: QSALTQPRSVSGSPGQSVTISCAGTSSDVGSENYVSWYQQHPGKAPKLMIYQVNKRASGVPDRFSGSKSGNTASLTISGLQAEDEADYYCASYRSSDHNIVFGGGTKLTVLGGGGSGGGGSGGGGSEVQLVESGGGLVQPGGSLRLSCAASGFTFSSYAMSWVRQAPGKGLEWVSTINSGTGSPYYADSVKGRFTISRDNSKNTLYLQMNSLRAEDTAVYYCAKNFFDGSWFLAPPAMDYWGQGTLVTVSSHHHHHH | 42 | 5.5
2 | HG108V (scFv, AS170036 VL1VH1 scFv mutein) scFv: QSALTQPRSVSGSPGQSVTISCAGTSSDVGSENYVSWYQQHPGKAPKLMIYQVNKRASGVPDRFSGSKSGNTASLTISGLQAEDEADYYCASYRSSDHNIVFGGGTKLTVLGGGGSGGGGSGGGGSEVQLVESGGGLVQPGGSLRLSCAASGFTFSSYAMSWVRQAPGKGLEWVSTINSGTGSPYYADSVKGRFTISRDNSKNTLYLQMNSLRAEDTAVYYCAKNFFDGSWFLVPPAMDYWGQGTLVTVSSHHHHHH | 370 | 0.7
3 | HG108D (scFv, AS170036 VL1VH1 scFv mutein; also called AS170036 VL1VH1-VHG108D) scFv: QSALTQPRSVSGSPGQSVTISCAGTSSDVGSENYVSWYQQHPGKAPKLMIYQVNKRASGVPDRFSGSKSGNTASLTISGLQAEDEADYYCASYRSSDHNIVFGGGTKLTVLGGGGSGGGGSGGGGSEVQLVESGGGLVQPGGSLRLSCAASGFTFSSYAMSWVRQAPGKGLEWVSTINSGTGSPYYADSVKGRFTISRDNSKNTLYLQMNSLRAEDTAVYYCAKNFFDGSWFLDPPAMDYWGQGTLVTVSSHHHHHH | 42 | 5.5
4 | HP110D (scFv, AS170036 VL1VH1 scFv mutein) scFv: QSALTQPRSVSGSPGQSVTISCAGTSSDVGSENYVSWYQQHPGKAPKLMIYQVNKRASGVPDRFSGSKSGNTASLTISGLQAEDEADYYCASYRSSDHNIVFGGGTKLTVLGGGGSGGGGSGGGGSEVQLVESGGGLVQPGGSLRLSCAASGFTFSSYAMSWVRQAPGKGLEWVSTINSGTGSPYYADSVKGRFTISRDNSKNTLYLQMNSLRAEDTAVYYCAKNFFDGSWFLGPDAMDYWGQGTLVTVSSHHHHHH | 540 | 0.5
5 | HL107M (scFv, AS170036 VL1VH1 scFv mutein) scFv: QSALTQPRSVSGSPGQSVTISCAGTSSDVGSENYVSWYQQHPGKAPKLMIYQVNKRASGVPDRFSGSKSGNTASLTISGLQAEDEADYYCASYRSSDHNIVFGGGTKLTVLGGGGSGGGGSGGGGSEVQLVESGGGLVQPGGSLRLSCAASGFTFSSYAMSWVRQAPGKGLEWVSTINSGTGSPYYADSVKGRFTISRDNSKNTLYLQMNSLRAEDTAVYYCAKNFFDGSWFMGPPAMDYWGQGTLVTVSSHHHHHH | 370 | 0.7
6 | HG108E (scFv, AS170036 VL1VH1 scFv mutein; also called AS170036 VL1VH1-VHG108E) scFv: QSALTQPRSVSGSPGQSVTISCAGTSSDVGSENYVSWYQQHPGKAPKLMIYQVNKRASGVPDRFSGSKSGNTASLTISGLQAEDEADYYCASYRSSDHNIVFGGGTKLTVLGGGGSGGGGSGGGGSEVQLVESGGGLVQPGGSLRLSCAASGFTFSSYAMSWVRQAPGKGLEWVSTINSGTGSPYYADSVKGRFTISRDNSKNTLYLQMNSLRAEDTAVYYCAKNFFDGSWFLEPPAMDYWGQGTLVTVSSHHHHHH | 56 | 4.1
7 | HG108L (scFv, AS170036 VL1VH1 scFv mutein) scFv: QSALTQPRSVSGSPGQSVTISCAGTSSDVGSENYVSWYQQHPGKAPKLMIYQVNKRASGVPDRFSGSKSGNTASLTISGLQAEDEADYYCASYRSSDHNIVFGGGTKLTVLGGGGSGGGGSGGGGSEVQLVESGGGLVQPGGSLRLSCAASGFTFSSYAMSWVRQAPGKGLEWVSTINSGTGSPYYADSVKGRFTISRDNSKNTLYLQMNSLRAEDTAVYYCAKNFFDGSWFLLPPAMDYWGQGTLVTVSSHHHHHH | 200 | 1.4
8 | HG108M (scFv, AS170036 VL1VH1 scFv mutein; also called AS170036 VL1VH1-VHG108M) scFv: QSALTQPRSVSGSPGQSVTISCAGTSSDVGSENYVSWYQQHPGKAPKLMIYQVNKRASGVPDRFSGSKSGNTASLTISGLQAEDEADYYCASYRSSDHNIVFGGGTKLTVLGGGGSGGGGSGGGGSEVQLVESGGGLVQPGGSLRLSCAASGFTFSSYAMSWVRQAPGKGLEWVSTINSGTGSPYYADSVKGRFTISRDNSKNTLYLQMNSLRAEDTAVYYCAKNFFDGSWFLMPPAMDYWGQGTLVTVSSHHHHHH | 58 | 4.7

The next lines start with the values.

Row | Kd [1] [nM] | Affinity increase [2] [fold] | Binder
9 | 96 | 2.8 | HG108S (scFv, AS170036 VL1VH1 scFv mutein; also called AS170036 VL1VH1-VHG108S) scFv: QSALTQPRSVSGSPGQSVTISCAGTSSDVGSENYVSWYQQHPGKAPKLMIYQVNKRASGVPDRFSGSKSGNTASLTISGLQAEDEADYYCASYRSSDHNIVFGGGTKLTVLGGGGSGGGGSGGGGSEVQLVESGGGLVQPGGSLRLSCAASGFTFSSYAMSWVRQAPGKGLEWVSTINSGTGSPYYADSVKGRFTISRDNSKNTLYLQMNSLRAEDTAVYYCAKNFFDGSWFLSPPAMDYWGQGTLVTVSSHHHHHH
10 | 380 | 0.7 | HP58A (scFv, AS170036 VL1VH1 scFv mutein) scFv: QSALTQPRSVSGSPGQSVTISCAGTSSDVGSENYVSWYQQHPGKAPKLMIYQVNKRASGVPDRFSGSKSGNTASLTISGLQAEDEADYYCASYRSSDHNIVFGGGTKLTVLGGGGSGGGGSGGGGSEVQLVESGGGLVQPGGSLRLSCAASGFTFSSYAMSWVRQAPGKGLEWVSTINSGTGSAYYADSVKGRFTISRDNSKNTLYLQMNSLRAEDTAVYYCAKNFFDGSWFLGPPAMDYWGQGTLVTVSSHHHHHH
11 | 530 | 0.5 | HG108T (scFv, AS170036 VL1VH1 scFv mutein) scFv: QSALTQPRSVSGSPGQSVTISCAGTSSDVGSENYVSWYQQHPGKAPKLMIYQVNKRASGVPDRFSGSKSGNTASLTISGLQAEDEADYYCASYRSSDHNIVFGGGTKLTVLGGGGSGGGGSGGGGSEVQLVESGGGLVQPGGSLRLSCAASGFTFSSYAMSWVRQAPGKGLEWVSTINSGTGSPYYADSVKGRFTISRDNSKNTLYLQMNSLRAEDTAVYYCAKNFFDGSWFLTPPAMDYWGQGTLVTVSSHHHHHH
12 | 240 | 1.1 | HL107I (scFv, AS170036 VL1VH1 scFv mutein) scFv: QSALTQPRSVSGSPGQSVTISCAGTSSDVGSENYVSWYQQHPGKAPKLMIYQVNKRASGVPDRFSGSKSGNTASLTISGLQAEDEADYYCASYRSSDHNIVFGGGTKLTVLGGGGSGGGGSGGGGSEVQLVESGGGLVQPGGSLRLSCAASGFTFSSYAMSWVRQAPGKGLEWVSTINSGTGSPYYADSVKGRFTISRDNSKNTLYLQMNSLRAEDTAVYYCAKNFFDGSWFIGPPAMDYWGQGTLVTVSSHHHHHH
13 | 500 | 0.5 | HP58Q (scFv, AS170036 VL1VH1 scFv mutein) scFv: QSALTQPRSVSGSPGQSVTISCAGTSSDVGSENYVSWYQQHPGKAPKLMIYQVNKRASGVPDRFSGSKSGNTASLTISGLQAEDEADYYCASYRSSDHNIVFGGGTKLTVLGGGGSGGGGSGGGGSEVQLVESGGGLVQPGGSLRLSCAASGFTFSSYAMSWVRQAPGKGLEWVSTINSGTGSQYYADSVKGRFTISRDNSKNTLYLQMNSLRAEDTAVYYCAKNFFDGSWFLGPPAMDYWGQGTLVTVSSHHHHHH
14 | 320 | 0.9 | HP58G (scFv, AS170036 VL1VH1 scFv mutein) scFv: QSALTQPRSVSGSPGQSVTISCAGTSSDVGSENYVSWYQQHPGKAPKLMIYQVNKRASGVPDRFSGSKSGNTASLTISGLQAEDEADYYCASYRSSDHNIVFGGGTKLTVLGGGGSGGGGSGGGGSEVQLVESGGGLVQPGGSLRLSCAASGFTFSSYAMSWVRQAPGKGLEWVSTINSGTGSGYYADSVKGRFTISRDNSKNTLYLQMNSLRAEDTAVYYCAKNFFDGSWFLGPPAMDYWGQGTLVTVSSHHHHHH
15 | 600 | 0.5 | HP58E (scFv, AS170036 VL1VH1 scFv mutein) scFv: QSALTQPRSVSGSPGQSVTISCAGTSSDVGSENYVSWYQQHPGKAPKLMIYQVNKRASGVPDRFSGSKSGNTASLTISGLQAEDEADYYCASYRSSDHNIVFGGGTKLTVLGGGGSGGGGSGGGGSEVQLVESGGGLVQPGGSLRLSCAASGFTFSSYAMSWVRQAPGKGLEWVSTINSGTGSEYYADSVKGRFTISRDNSKNTLYLQMNSLRAEDTAVYYCAKNFFDGSWFLGPPAMDYWGQGTLVTVSSHHHHHH
16 | 200 | 1.4 | HG108Q (scFv, AS170036 VL1VH1 scFv mutein) scFv: QSALTQPRSVSGSPGQSVTISCAGTSSDVGSENYVSWYQQHPGKAPKLMIYQVNKRASGVPDRFSGSKSGNTASLTISGLQAEDEADYYCASYRSSDHNIVFGGGTKLTVLGGGGSGGGGSGGGGSEVQLVESGGGLVQPGGSLRLSCAASGFTFSSYAMSWVRQAPGKGLEWVSTINSGTGSPYYADSVKGRFTISRDNSKNTLYLQMNSLRAEDTAVYYCAKNFFDGSWFLQPPAMDYWGQGTLVTVSSHHHHHH
17 | 210 | 1.3 | HP110A (scFv, AS170036 VL1VH1 scFv mutein) scFv: QSALTQPRSVSGSPGQSVTISCAGTSSDVGSENYVSWYQQHPGKAPKLMIYQVNKRASGVPDRFSGSKSGNTASLTISGLQAEDEADYYCASYRSSDHNIVFGGGTKLTVLGGGGSGGGGSGGGGSEVQLVESGGGLVQPGGSLRLSCAASGFTFSSYAMSWVRQAPGKGLEWVSTINSGTGSPYYADSVKGRFTISRDNSKNTLYLQMNSLRAEDTAVYYCAKNFFDGSWFLGPAAMDYWGQGTLVTVSSHHHHHH
18 | 530 | 0.5 | HL107N (scFv, AS170036 VL1VH1 scFv mutein) scFv: QSALTQPRSVSGSPGQSVTISCAGTSSDVGSENYVSWYQQHPGKAPKLMIYQVNKRASGVPDRFSGSKSGNTASLTISGLQAEDEADYYCASYRSSDHNIVFGGGTKLTVLGGGGSGGGGSGGGGSEVQLVESGGGLVQPGGSLRLSCAASGFTFSSYAMSWVRQAPGKGLEWVSTINSGTGSPYYADSVKGRFTISRDNSKNTLYLQMNSLRAEDTAVYYCAKNFFDGSWFNGPPAMDYWGQGTLVTVSSHHHHHH
19 | 140 | 2 | HG108N (scFv, AS170036 VL1VH1 scFv mutein; also called AS170036 VL1VH1-VHG108N) scFv: QSALTQPRSVSGSPGQSVTISCAGTSSDVGSENYVSWYQQHPGKAPKLMIYQVNKRASGVPDRFSGSKSGNTASLTISGLQAEDEADYYCASYRSSDHNIVFGGGTKLTVLGGGGSGGGGSGGGGSEVQLVESGGGLVQPGGSLRLSCAASGFTFSSYAMSWVRQAPGKGLEWVSTINSGTGSPYYADSVKGRFTISRDNSKNTLYLQMNSLRAEDTAVYYCAKNFFDGSWFLNPPAMDYWGQGTLVTVSSHHHHHH

Reference: patent US20240279318A1 (NANJING LEGEND BIOTECH, published 2024)
